Test results: the supplement of paper PMC10065799, “High-throughput profiling of sequence recognition by tyrosine kinases and SH2 domains using bacterial peptide display” (eLife, 2023)

Assays:
[1] = biological target: SHP2-C SH2; test: SH2 binding enrichment of the phosphorylated peptide, bacterial display (enrichment ratio); higher = better substrate or ligand; peptides without Tyr show the background
[2] = biological target: Grb2 SH2 (UniProt P62993); test: as above
[3] = biological target: c-Src SH2; test: as above
[4] = system: c-Src; test: phosphorylation enrichment, bacterial display (enrichment ratio); higher = better substrate or ligand; peptides without Tyr show the background
[5] = biological target: EPHB1 (UniProt P54762); test: as above
Sequence of EPHB1 (P54762 whole entry, looked up): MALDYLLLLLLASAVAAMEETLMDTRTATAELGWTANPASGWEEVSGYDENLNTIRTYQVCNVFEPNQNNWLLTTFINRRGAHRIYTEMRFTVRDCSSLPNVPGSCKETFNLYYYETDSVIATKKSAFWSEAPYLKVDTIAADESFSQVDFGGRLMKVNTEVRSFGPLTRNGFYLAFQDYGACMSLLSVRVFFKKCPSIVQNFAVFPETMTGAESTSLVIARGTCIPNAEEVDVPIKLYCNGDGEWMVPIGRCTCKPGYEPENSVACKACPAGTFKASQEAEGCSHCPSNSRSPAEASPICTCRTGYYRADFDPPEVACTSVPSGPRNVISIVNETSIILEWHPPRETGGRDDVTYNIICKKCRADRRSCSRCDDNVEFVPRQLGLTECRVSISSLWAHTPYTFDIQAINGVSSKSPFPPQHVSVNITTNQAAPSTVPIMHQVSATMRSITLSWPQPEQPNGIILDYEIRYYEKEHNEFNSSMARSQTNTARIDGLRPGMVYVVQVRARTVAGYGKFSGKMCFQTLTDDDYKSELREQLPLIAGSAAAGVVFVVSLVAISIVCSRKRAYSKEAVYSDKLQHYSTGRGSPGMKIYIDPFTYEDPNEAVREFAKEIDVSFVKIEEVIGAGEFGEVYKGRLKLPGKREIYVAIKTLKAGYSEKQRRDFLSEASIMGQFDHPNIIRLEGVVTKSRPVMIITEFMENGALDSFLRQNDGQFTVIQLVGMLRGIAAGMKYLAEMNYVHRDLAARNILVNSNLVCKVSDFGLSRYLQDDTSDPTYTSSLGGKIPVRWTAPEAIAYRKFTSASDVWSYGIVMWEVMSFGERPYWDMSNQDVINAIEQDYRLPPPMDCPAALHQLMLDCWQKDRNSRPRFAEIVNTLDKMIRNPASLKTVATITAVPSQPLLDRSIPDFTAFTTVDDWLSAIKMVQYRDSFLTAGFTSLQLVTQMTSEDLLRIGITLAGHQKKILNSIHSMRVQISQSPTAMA

[6] = biological target: Fyn (UniProt P06241); test: as above
[7] = biological target: EPHB2 (UniProt P29323); test: as above
Sequence of EPHB2 (P29323 whole entry, looked up): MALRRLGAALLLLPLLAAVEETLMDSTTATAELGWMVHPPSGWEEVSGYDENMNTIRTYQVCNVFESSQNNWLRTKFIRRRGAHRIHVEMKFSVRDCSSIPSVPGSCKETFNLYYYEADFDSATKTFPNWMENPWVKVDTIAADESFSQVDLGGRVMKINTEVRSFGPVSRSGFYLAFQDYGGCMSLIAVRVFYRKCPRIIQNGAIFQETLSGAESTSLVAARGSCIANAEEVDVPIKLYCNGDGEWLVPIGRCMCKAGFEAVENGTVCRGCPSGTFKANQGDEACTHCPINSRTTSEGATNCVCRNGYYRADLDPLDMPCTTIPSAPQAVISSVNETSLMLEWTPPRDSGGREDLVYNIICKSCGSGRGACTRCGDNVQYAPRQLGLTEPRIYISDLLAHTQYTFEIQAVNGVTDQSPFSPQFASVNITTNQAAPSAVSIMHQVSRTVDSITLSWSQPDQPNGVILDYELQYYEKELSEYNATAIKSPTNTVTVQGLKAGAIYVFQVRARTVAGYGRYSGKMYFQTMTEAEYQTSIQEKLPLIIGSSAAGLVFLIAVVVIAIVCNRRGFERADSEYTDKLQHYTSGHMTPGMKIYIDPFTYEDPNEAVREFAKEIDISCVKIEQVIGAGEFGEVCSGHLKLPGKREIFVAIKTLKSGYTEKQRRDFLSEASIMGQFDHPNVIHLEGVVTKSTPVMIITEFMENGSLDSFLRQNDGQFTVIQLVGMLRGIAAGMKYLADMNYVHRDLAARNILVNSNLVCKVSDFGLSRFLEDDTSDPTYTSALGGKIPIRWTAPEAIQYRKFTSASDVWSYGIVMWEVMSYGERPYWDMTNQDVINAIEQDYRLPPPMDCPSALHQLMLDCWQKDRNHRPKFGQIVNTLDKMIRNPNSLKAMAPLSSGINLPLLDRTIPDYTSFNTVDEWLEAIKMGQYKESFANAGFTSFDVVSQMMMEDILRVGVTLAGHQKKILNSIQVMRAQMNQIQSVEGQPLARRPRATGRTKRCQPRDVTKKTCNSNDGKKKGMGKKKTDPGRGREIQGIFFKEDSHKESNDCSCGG

[8] = system: Fer (mouse); test: as above
[9] = biological target: FGFR1 (UniProt P11362); test: as above
Sequence of FGFR1 (P11362 whole entry, looked up): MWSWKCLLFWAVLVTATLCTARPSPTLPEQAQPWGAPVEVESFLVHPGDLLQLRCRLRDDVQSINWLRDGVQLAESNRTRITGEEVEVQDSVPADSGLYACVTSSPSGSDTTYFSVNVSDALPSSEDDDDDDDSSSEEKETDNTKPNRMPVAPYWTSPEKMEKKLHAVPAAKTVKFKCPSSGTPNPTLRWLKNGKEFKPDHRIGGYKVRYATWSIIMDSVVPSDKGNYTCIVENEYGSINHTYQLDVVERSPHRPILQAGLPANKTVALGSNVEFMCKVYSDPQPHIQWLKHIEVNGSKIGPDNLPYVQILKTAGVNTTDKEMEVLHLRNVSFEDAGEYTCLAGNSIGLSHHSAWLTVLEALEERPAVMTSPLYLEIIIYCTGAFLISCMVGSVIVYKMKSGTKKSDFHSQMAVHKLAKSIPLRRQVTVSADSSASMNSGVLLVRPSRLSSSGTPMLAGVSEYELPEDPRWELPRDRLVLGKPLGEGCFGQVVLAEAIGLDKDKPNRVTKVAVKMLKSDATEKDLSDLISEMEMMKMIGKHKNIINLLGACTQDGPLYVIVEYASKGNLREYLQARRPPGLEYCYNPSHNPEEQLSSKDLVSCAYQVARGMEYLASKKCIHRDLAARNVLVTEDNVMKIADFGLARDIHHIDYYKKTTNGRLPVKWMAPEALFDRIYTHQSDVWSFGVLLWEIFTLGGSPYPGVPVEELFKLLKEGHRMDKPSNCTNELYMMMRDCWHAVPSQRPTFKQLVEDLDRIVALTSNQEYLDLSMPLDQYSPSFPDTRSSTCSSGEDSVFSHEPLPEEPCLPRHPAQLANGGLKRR

[10] = biological target: Hck (UniProt P08631); test: as above
Sequence of Hck (P08631 whole entry, looked up): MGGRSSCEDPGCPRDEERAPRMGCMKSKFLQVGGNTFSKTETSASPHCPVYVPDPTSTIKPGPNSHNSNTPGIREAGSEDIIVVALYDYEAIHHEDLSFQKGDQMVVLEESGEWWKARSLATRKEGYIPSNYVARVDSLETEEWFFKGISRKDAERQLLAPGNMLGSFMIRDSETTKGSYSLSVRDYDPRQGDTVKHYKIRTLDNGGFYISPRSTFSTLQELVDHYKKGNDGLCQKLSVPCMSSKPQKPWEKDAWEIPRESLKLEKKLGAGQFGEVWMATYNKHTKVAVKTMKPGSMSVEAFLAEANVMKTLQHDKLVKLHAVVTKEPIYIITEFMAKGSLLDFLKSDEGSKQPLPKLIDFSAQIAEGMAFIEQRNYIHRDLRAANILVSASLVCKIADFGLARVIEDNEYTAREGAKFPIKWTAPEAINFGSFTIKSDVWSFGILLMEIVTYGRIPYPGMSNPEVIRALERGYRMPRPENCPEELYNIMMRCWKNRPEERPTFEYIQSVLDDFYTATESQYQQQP

[11] = biological target: Jak2 (UniProt O60674); test: as above
[12] = system: AncSZ; test: as above
[13] = system: c-Abl (mouse); test: as above
[14] = biological target: MERTK (UniProt Q12866); test: as above
[15] = biological target: FGFR3 (UniProt P22607); test: as above
Sequence of FGFR3 (P22607 whole entry, looked up): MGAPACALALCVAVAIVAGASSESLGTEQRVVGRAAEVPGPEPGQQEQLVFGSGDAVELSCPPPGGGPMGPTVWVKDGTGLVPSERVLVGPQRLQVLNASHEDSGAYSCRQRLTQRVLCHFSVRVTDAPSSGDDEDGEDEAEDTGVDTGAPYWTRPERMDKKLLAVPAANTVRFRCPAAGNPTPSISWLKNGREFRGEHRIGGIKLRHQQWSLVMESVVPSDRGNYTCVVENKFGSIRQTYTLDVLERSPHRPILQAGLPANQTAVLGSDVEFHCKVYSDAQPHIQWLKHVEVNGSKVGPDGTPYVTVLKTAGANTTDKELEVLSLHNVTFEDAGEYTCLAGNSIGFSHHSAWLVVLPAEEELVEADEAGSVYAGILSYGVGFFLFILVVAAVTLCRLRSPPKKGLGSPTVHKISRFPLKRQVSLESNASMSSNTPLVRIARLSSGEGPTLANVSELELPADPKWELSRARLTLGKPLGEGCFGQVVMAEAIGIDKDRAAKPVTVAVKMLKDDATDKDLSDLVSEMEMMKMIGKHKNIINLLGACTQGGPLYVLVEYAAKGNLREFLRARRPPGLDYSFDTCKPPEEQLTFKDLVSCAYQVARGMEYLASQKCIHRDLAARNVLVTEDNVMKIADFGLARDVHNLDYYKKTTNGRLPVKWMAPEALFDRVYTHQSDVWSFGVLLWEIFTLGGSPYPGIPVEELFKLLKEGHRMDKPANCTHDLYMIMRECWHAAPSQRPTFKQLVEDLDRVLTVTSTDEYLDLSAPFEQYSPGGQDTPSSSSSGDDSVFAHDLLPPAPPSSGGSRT

[16] = biological target: Fes (UniProt P07332); test: as above
Sequence of Fes (P07332 whole entry, looked up, the tested form may be a part): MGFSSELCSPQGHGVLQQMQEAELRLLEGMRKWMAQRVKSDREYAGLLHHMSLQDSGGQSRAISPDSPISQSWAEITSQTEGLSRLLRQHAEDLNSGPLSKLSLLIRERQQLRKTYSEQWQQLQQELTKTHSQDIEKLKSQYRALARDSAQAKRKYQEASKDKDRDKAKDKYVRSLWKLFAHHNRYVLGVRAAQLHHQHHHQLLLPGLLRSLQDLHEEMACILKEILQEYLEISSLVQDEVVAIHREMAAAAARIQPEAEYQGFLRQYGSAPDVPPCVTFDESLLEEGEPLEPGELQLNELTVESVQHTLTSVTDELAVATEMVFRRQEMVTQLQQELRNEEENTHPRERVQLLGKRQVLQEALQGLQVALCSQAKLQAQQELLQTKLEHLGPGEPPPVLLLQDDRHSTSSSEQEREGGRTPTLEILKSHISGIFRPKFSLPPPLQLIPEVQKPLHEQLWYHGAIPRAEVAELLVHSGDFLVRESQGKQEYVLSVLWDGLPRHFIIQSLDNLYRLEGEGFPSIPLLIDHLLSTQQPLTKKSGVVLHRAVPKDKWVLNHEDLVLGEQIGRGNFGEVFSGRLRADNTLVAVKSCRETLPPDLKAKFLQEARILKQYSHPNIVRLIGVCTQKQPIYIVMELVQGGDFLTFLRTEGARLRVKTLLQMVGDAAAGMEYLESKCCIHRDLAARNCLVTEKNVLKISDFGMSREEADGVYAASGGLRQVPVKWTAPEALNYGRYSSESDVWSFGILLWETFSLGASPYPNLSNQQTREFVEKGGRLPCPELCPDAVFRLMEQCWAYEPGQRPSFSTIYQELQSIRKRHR
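Throughout, for SH2 binding enrichment of the phosphorylated peptide, bacterial display: peptide library displayed on the E. coli surface as eCPX fusions, selected cells deep-sequenced, score is each peptide's frequency after selection divided by its frequency in the input.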
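Throughout, for phosphorylation enrichment, bacterial display: 11-residue human phosphosite peptides and single-mutation variants displayed on the E. coli surface, counted by deep sequencing, each peptide's frequency after selection divided by its frequency in the unselected input library; frequency after pTyr selection over input frequency; kinase dosed for 20-30% of maximal phosphorylation in three min.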

Sequence	SH2 binding enrichment [1]	SH2 binding enrichment [2]	SH2 binding enrichment [3]	phosphorylation enrichment [4]	phosphorylation enrichment [5]	phosphorylation enrichment [6]	phosphorylation enrichment [7]	phosphorylation enrichment [8]	phosphorylation enrichment [9]	phosphorylation enrichment [10]	phosphorylation enrichment [11]	phosphorylation enrichment [12]	phosphorylation enrichment [13]	phosphorylation enrichment [14]	phosphorylation enrichment [15]	phosphorylation enrichment [16]
RFLERYIFNRQ [HLA-DPB1_Y57_E62Q_YF]	0.833	0.901	0.577	0.893	0.603	0.535	0.29	0.75	0.448	0.678	1.71	1.57	1.36	0.756	0.642	1.63
RFLERYIYNPE [HLA-DPB1_Y57_R61P]	1.28	1.17	0.966	3.08	0.755	1.75	0.675	0.636	0.55	2.11	0.935	1.1	0.68	1.5	0.671	1.15
RFLRGYQQDAF [HLA-A_Y137_R138Q_YF]	0.581	0.58	0.374	0.603	0.796	0.685	0.518	0.518	0.803	0.693	0.965	1.11	0.81	0.558	0.677	0.684
RGNMFYENSFA [EGFR_Y113_YF]	1.26	18.9	3.16	0.922	0.483	0.997	0.663	2.57	0.785	0.479	1.01	1.21	0.533	0.727	0.744	0.836
RHCSGYVLIAM [EFR3A_Y73_R70C]	1.05	1.01	1.05	0.517	0.51	0.376	0.403	0.501	0.596	0.472	0.846	0.885	0.575	0.268	0.669	0.879
RIGRKYKKVRF [F8_Y442]	0.275	0.488	0.254	0.385	0.338	0.36	0.511	0.298	0.352	0.356	0.432	0.47	0.298	0.351	0.364	0.341
RLAKTYKTTLE [ALB_Y377_E378K]	0.669	1.01	0.672	0.441	0.324	0.253	0.509	0.624	0.513	0.388	0.72	0.564	1.18	0.365	0.446	0.632
RLLVVYHWTQR [HBD_Y36_P37H]	1.27	1.49	1.27	0.566	0.785	0.46	0.514	0.659	0.458	0.85	1.17	1.42	1.32	0.666	0.75	1.58
RLQEDYDHSYY [ESD_Y258_G257D]	0.741	0.932	1.16	1.06	0.814	0.824	0.811	0.572	0.923	0.781	1.56	1.78	0.943	0.754	1.03	1.55
RMDGKYACSFT [FLNB_Y704_T703K_YF]	0.638	0.935	0.566	0.491	0.882	0.756	0.977	0.701	1.1	0.964	0.929	1.38	0.902	0.589	1.45	1.28
RMDGKYACSYT [FLNB_Y704_T703K]	0.863	0.997	0.878	0.664	0.437	0.418	0.471	0.635	0.528	0.541	0.722	0.899	0.79	0.484	0.518	1.02
RRLEPYGENFN [APOA4_Y310_V307L]	0.286	0.822	0.527	0.463	0.398	0.281	0.317	0.315	0.266	0.25	0.681	1.04	0.371	0.385	0.493	0.732

Further lines, with some results ahead:

SH2 binding enrichment [1]	SH2 binding enrichment [2]	SH2 binding enrichment [3]	Sequence	phosphorylation enrichment [4]	phosphorylation enrichment [5]	phosphorylation enrichment [6]	phosphorylation enrichment [7]	phosphorylation enrichment [8]	phosphorylation enrichment [9]	phosphorylation enrichment [10]	phosphorylation enrichment [11]	phosphorylation enrichment [12]	phosphorylation enrichment [13]	phosphorylation enrichment [14]	phosphorylation enrichment [15]	phosphorylation enrichment [16]
0.882	1.08	0.877	RFLERDIYNRE [HLA-DPB1_Y57_Y57D]	1.8	1.74	5.19	1.48	1.85	1.18	10.7	0.764	2.71	0.787	1.26	2.92	2.16
0.588	0.72	0.39	RFVTRSIFNRE [HLA-DQB1_Y62_Y62S_YF]	0.578	0.61	0.498	0.718	0.652	0.472	0.632	0.723	1.14	0.402	0.577	0.711	0.827
0.791	0.8	0.703	RKEAQYMLENE [SLC16A6_Y224]	0.899	0.605	0.642	0.523	0.445	0.503	0.803	1.22	1.52	0.997	0.619	0.827	1.32
0.567	0.876	0.848	RLGDLYEEEMR [VIM_Y150]	0.425	0.615	0.487	0.691	0.377	0.48	0.379	0.938	0.72	0.585	0.335	0.487	1.14
0.762	0.987	0.429	RLGNQHVNVMN [SLC3A1_Y461_Y461H]	0.717	0.694	0.627	0.612	0.504	0.567	0.505	1.09	0.793	0.947	0.53	0.691	1.09
0.906	0.836	0.39	RLVTRYIYNRE [HLA-DQB1_Y62_Y58L]	0.532	0.443	0.673	0.481	0.408	0.86	0.424	0.493	0.697	0.447	0.507	0.739	0.822
3.4	1.86	3.12	RNPLRYTSILT [OR51B6_Y130_S126N]	0.65	0.478	0.532	0.482	0.474	0.582	0.498	0.892	0.689	0.697	0.484	0.738	0.794
0.734	0.766	0.586	RPQDGFRIVQH [PTPRT_Y1329_Y1329F]	0.483	0.62	0.597	0.426	0.417	0.43	0.532	0.561	0.769	0.836	0.52	0.45	0.838
0.801	0.765	0.417	RPSRQYATRDV [SCAMP3_Y35_L38R]	0.407	0.366	0.396	0.356	0.381	0.473	0.412	0.352	0.598	0.615	0.274	0.352	0.498
0.79	0.818	0.488	RQGKDYVGAIP [KDR_Y951]	0.487	0.471	0.552	0.442	0.361	1.44	0.452	0.656	0.705	0.636	0.485	0.409	0.832
0.774	0.79	0.559	RRFSSYSQMEN [PKP1_Y120]	0.614	0.984	1.48	0.89	0.833	1.34	0.896	0.657	2.29	0.808	1.06	1.18	2.57
0.57	0.544	0.327	RRGMPYGGCGD [TGM1_Y312_R315C]	0.486	0.551	0.522	0.486	0.409	0.634	0.659	0.5	0.782	0.595	0.454	0.573	0.489
0.478	0.95	0.534	RRIHSYRGHLC [VHL_Y112_W117C]	0.566	0.656	0.531	0.619	0.382	0.503	0.63	0.821	0.774	0.534	0.828	0.733	1.3
0.976	0.994	0.51	RRMLQYLTVND [PPFIBP2_Y663]	0.486	0.417	0.501	0.584	0.456	0.63	0.686	0.882	0.803	0.691	0.475	0.632	0.862
0.566	0.727	0.286	RRRLIYRCQVG [NR2E3_Y81]	0.556	0.76	0.915	0.983	0.587	0.854	0.884	0.679	0.776	0.697	0.735	0.601	1.05
0.85	0.941	0.529	RRSQSYIPTSG [PLEKHA2_Y185]	0.682	0.372	0.707	0.729	0.354	0.615	0.473	0.649	0.663	0.497	0.59	0.455	0.709
0.774	0.852	0.527	RRVPVYGGRGA [QDPR_Y16_L14P]	1.15	0.573	0.626	0.512	0.626	0.762	0.702	1.36	0.969	1.28	0.779	0.627	0.836
